The chains are these.
B1: DbfS sensory domain, DbfS^SD-6×His (residues 43 to 171) (domain or fragment)
chain: NLIHQYLLEDVQNQLQLSMDEITANLEANPQGQLTLTTRLADPRFTQPYSGLYWSATLGDQTLRSRSLWDRFLTEETHVHGTIYLGAKEESLIVLKRTVYLPEFSQPITITIGLDDAPLKATLQRVSKE
notes: DbfS, sensor histidine kinase of the DbfRS two-component system of Vibrio cholerae (gene vc_1639); periplasmic sensory domain, residues 43 to 171; The vector is pET-15b; also called unlabeled DbfS; VC_1639; source: E. coli BL21 (DE3), pET-15b, purified (Ni-NTA)
B2: DbfQ, processed (residues 32 to 135, excluding the secretion signal), 6×His tag cleaved (natural protein)
chain: DNKVRDWEQGSYREGTQIEIDEDQDDVYRAVQKGLIRPFAELYATVDQQLNGRLIKVELDEDDDEWIYELKLVYDNQVFRVEYNAATLELMSIRGRNVIRAIKK
modifications: in the MST experiments only: covalently labeled with an amine-reactive Red-NHS dye
notes: DbfQ, small periplasmic PepSY-domain protein of Vibrio cholerae (135-amino-acid precursor, gene vc_1637); processed form, residues 32 to 135 without the secretion signal; also called cleaved DbfQ; DbfQ (6×His tag-cleaved)

Experiment [1] has as its target B2. The experiment can be described thus: MST; titration to saturation for stoichiometry: DbfQ-NHS 100 nM, unlabeled DbfS 0 nM to 40,000 nM, 25 °C. To be noted: both partners purified.
For experiment [2], the target named is B1. The experiment is described as follows: MST; Red-NHS-labeled DbfQ constant at 20 nM, unlabeled DbfS 0.49 nM to 16,105 nM; buffer M (20 mM MES, 100 mM NaCl, 10% glycerol) with 0.05% Tween 20, pH 7.5, 25 °C; 1:1 binding model (PALMIST). Particulars: both partners purified.

For the molecule B1, the stoichiometry N (as a rule, the number of molecules, sites or subunits per partner or assembly) in experiment [1] turned out to be 1.
As for B2, binding in experiment [2] was characterised by a dissociation constant (Kd) of 30 nM.

The values above are taken from PMC12714742, “A small periplasmic protein governs broad physiological adaptations in Vibrio cholerae via regulation of the DbfRS two-component system” (Nature Communications, 2025).
